Data on one molecule can be found in patent US20200231671A1 (E R SQUIBB AND SONS L L C, published 2020).

For this assay, the target named is T1, human LAG-3 (cell surface) (human, UniProt P18627 23-525).
T1 construct: whole, on cells; also called CHO-human LAG-3
T1 sequence (looked up): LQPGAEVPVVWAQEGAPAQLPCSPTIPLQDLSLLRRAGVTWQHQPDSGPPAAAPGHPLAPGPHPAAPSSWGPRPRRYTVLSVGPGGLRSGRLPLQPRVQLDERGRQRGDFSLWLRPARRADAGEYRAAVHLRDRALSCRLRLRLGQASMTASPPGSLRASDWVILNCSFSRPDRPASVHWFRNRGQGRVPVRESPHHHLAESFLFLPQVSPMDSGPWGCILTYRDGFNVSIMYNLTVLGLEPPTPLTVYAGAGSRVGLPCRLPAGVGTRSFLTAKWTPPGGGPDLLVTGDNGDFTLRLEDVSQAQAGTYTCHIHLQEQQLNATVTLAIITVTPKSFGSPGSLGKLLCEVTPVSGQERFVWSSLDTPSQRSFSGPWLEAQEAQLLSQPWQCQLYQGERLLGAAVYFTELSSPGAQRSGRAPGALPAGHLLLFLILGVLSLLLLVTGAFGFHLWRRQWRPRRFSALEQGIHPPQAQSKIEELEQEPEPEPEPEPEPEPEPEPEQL
The experiment in a line: flow cytometry, CHO cells expressing human LAG-3. On the procedure: To test the ability of the antibodies to bind to cell surface LAG-3 protein, the antibodies were incubated with a CHO cell line that had been transfected to express human LAG-3 on the cell surface. The 25F7, 26H10, 25E3, 8B7, 11F2 and 17E5 monoclonal antibodies were serially diluted with cold lx PFAE buffer (1×PBS+2% FBS, 0.02% sodium azide, 2 mM Na EDTA). For the binding reaction, 50 μl of diluted antibody solution was added to a 50 μl cell suspension containing 2×10⁵ cells and the mixture was incubated on ice for 30 minutes. The cells were then washed two times with 1×PFAE buffer. A 1:100 dilution of FITC-labeled goat anti-human kappa light chain antibody (Bethyl Laboratories, Inc., Cat. # A80-115F) was added and the mixture was incubated for 30 minutes at 4° C., followed by washing twice with cold 1×PFAE buffer. After the final wash, 150 μl of cold 1×PFAE containing 10 μg/mL propidium iodide (Roche Applied Science, Cat #1 348 639) was added to each solution and analysis of antibody binding was carried out by flow cytometry using a FACScalibur flow cytometer (BD Bioscience).
Background: Flow cytometry measures light scatter and fluorescence of single cells or particles in a stream.

B1: 11F2 human monoclonal antibody (antibody, IgG2, V domains shown)
VH: QVQLVQSGAEVKKPGASVKVSCKVSGYTLTEVSMHWVRQAPGKGLEWMGGFDPEDGETIYAQKFQGRVTMTEDTSTDTAYMELSSLRSEDTAVYYCATAFVVVVAASDYWGQGTLVTVSS
VL: EIVLTQSPATLSLSPGERATLSCRASQSVSSYLAWYQQKPGQAPRLLIYDASNRATGIPARFSGSGSGTDFTLTISSLEPEDFAVYYCQQRSNWPWTFGQGTKVEIK
One may read the EC50 as the concentration giving half of the maximal effect. The molecule B1 came in with an EC50 of 15.1 nM.
